# Laboratory results taken from patent US20250276075A1, “METHODS OF TREATING AXL-EXPRESSING CANCERS WITH ANTI-AXL ANTIBODIES, ANTIBODY FRAGMENTS AND THEIR IMMUNOCONJUGATES” (BIOATLA, INC., priority 2020, published 2025).
# “Also recorded” adds a separate entry of the source.
# T1: mouse Axl (Mus musculus, UniProt Q00993)
# T1 sequence (Q00993 19-888): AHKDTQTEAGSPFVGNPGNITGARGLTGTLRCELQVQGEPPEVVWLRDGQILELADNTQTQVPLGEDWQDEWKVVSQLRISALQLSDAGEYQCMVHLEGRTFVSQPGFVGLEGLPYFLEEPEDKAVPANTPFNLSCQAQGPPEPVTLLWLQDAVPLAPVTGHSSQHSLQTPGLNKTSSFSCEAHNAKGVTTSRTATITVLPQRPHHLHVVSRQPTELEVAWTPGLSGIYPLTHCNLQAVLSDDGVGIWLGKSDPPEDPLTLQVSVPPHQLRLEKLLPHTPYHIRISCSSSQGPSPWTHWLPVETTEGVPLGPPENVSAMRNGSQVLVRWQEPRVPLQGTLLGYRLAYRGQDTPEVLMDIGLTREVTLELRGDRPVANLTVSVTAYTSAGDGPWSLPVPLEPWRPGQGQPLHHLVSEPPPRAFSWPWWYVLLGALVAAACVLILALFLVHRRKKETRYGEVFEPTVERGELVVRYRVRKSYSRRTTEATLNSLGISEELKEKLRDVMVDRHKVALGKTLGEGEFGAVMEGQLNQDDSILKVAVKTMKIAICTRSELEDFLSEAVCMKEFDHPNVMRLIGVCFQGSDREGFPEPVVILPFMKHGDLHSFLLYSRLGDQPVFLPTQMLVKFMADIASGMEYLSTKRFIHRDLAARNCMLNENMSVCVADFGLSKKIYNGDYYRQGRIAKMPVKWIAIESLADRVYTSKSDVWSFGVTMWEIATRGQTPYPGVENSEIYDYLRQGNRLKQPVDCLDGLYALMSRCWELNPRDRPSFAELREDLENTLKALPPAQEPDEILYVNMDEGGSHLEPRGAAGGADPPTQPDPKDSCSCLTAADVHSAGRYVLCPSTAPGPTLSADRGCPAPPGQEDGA
# B1: Mecbotamab vedotin (conjugate, chains of the INN, looked up)
# VH: EVQLVQSGAEVKKPGATVKISCKVSGYSFWGATMNWIRQPPGKGLEWIGLIKPSNGGTSYNQKFKGRVTISADKSISTAYLQWSSLKASDTAMYYCAHGHYESYEAMDYWGQGTLVTVSS
# VL: DIQMTQSPSSLSASVGDRVTITCKASQDVVSAVAWYQQKPGQAPRLLIYWQDTRHTGVPSRFSGSGSGTEFTLTISSLQPDDFATYYCQEHFSPPLTFGQGTKVEIK
# modifications: MC-vc-PAB-MMAE conjugate
# Tests used:
# [1] = system: Axl expressing human cancer cell lines; test: BA3011 in vitro functional assays of cellular toxicity; format: cell-based
# [2] = biological target: T1, mouse Axl; test: BA3011 binding to mouse Axl
# [3] = system: advanced sarcoma; test: Phase 1 clinical study of BA3011: antitumor activity (RECIST v1.1, change in sum of target lesions); format: in vivo, human
# Description: The primary efficacy endpoint in Phase 2 is objective response (OR) per RECIST v1.1 using blinded independent central review (BICR). Objective response rate (ORR) is defined as the proportion of subjects with a best overall response of confirmed CR or confirmed PR that occur prior to the initiation of subsequent anticancer treatment. ORR will be estimated with a 95% CI using the exact probability method for each sarcoma subtype and overall in each of the 2 treatment groups (BA3011 alone and in combination with nivolumab). Other efficacy endpoints are duration of response (DOR), progression-free survival (PFS), best overall response (OR), disease control rate (DCR), time to response (TTR), progression-free rate (PFR) at 12 weeks, overall survival (OS), and percent change from baseline in target lesion sum of diameters. All efficacy endpoints except PFS and OS will be summarized primarily based on the full analysis set (FAS). PFS and OS will be summarized based on the As-Treated Population. Time-to-event data will be summarized using Kaplan-Meier estimates. Response rates and their confidence intervals will be estimated using the exact probability method. Graphical analyses will include spider and waterfall plots for the change and best change from baseline in tumor size, respectively.
# Study BA3011-001 was an ongoing, multi-center, open-label, Phase 1/2 first-in-human trial of BA3011.
# In Phase 1 (NCT03425279), BA3011 was administered once (Q3W) or twice (2Q3W) every 3 weeks via intravenous (IV) infusion.
# [4] = BA3011 repeat dose intravenous toxicology study in monkey; format: in vivo, cynomolgus monkey
# Method: The nonclinical intravenous (IV) toxicity of BA3011 was evaluated in the monkey in an initial dose-range finding study followed by a definitive Good Laboratory Practice repeat dose toxicology study. […] Many of the toxicities observed with BA3011 are similar to other ADCs conjugated to MMAE.
# (§1) Based on the results at the 5 and 10 mg/kg/dose, the no-observed-adverse-effect-level (NOAEL) of BA3011 was considered to be 1 mg/kg/dose for both males and females. […] The highest non-severely toxic dose (HNSTD) was 5 mg/kg/dose, with C0 on Day 22 at 111 μg/mL and AUC0-inf at 2370 μg·h/mL.
# [5] = system: cynomolgus monkey Axl; test: BA3011 binding to cynomolgus monkey Axl
# [6] = BA3011 plasma exposure in monkey toxicology study; format: in vivo, cynomolgus monkey
# Method: as §1
molecule,measurement,setting,value
B1,cytotoxicity,[1]; normal conditions,reduced cytotoxicity
same,cellular toxicity,[1]; tumor conditions,induce cellular toxicity
same,binding to mouse Axl,[2],not mouse or rat Axl; also recorded: lacked binding to the rodent enzyme
same,antitumor activity in sarcoma patients,[3]; Phase 1,correlated with higher levels of AXL tumor membrane expression; also recorded: evidence of antitumor activity was observed
same,confirmed partial responses,[3]; of 7 treatment refractory sarcoma patients with baseline TmPS≥70 dosed at 1.8 mg/kg (Q3w or 2Q3w),4
same,duration of response to therapy,"[3]; sarcoma patients, FIG. 24",Prolonged response to therapy
same,pathological changes in lymphoid organs,[4]; 10 mg/kg/dose in males and 5 mg/kg/dose in females,adverse pathological changes in lymphoid organs
same,mortality,"[4]; 10 mg/kg/dose, Days 1 and 22, IV slow bolus",early deaths in females
same,hematological changes,[4]; 5 and 10 mg/kg/dose in both sexes,adverse hematological changes
same,"changes in body weight, electrocardiogram (ECG), ophthalmology, or urinalysis",[4]; any of the dose levels tested,No test article-related changes
same,highest non-severely toxic dose (HNSTD),"[4]; cynomolgus monkey, in vivo",5 mg/kg/dose
same,cross-reactivity to the cynomolgus Axl protein,[5],cross-reacted
same,binding to cynomolgus monkey Axl,[5]; conditions mimicking the TME (pH 6.0-7.0),high affinity and specificity
same,binding to cynomolgus monkey Axl,[5]; conditions mimicking the normal tissue environment (pH 7.3-7.4),reduced binding
same,area under the concentration versus time curve (AUC)0-inf,"[6]; 1 mg/kg/dose, Day 22",376 µg·h/mL
same,group mean maximum plasma exposure (C0),"[6]; 1 mg/kg/dose, Day 22",20.0 µg/mL
same,AUC0-inf,[6]; 5 mg/kg/dose (HNSTD),2370 µg·h/mL
same,C0,"[6]; 5 mg/kg/dose (HNSTD), Day 22",111 µg/mL
